Test results as given in paper PMC3679522 (eLife, 2013).

B1: GST-Nup100(1–610) (domain or fragment, S. cerevisiae, UniProt Q02629 1-610, looked up)
chain: MFGNNRPMFGGSNLSFGSNTSSFGGQQSQQPNSLFGNSNNNNNSTSNNAQSGFGGFTSAAGSNSNSLFGNNNTQNNGAFGQSMGATQNSPFGSLNSSNASNGNTFGGSSSMGSFGGNTNNAFNNNSNSTNSPFGFNKPNTGGTLFGSQNNNSAGTSSLFGGQSTSTTGTFGNTGSSFGTGLNGNGSNIFGAGNNSQSNTTGSLFGNQQSSAFGTNNQQGSLFGQQSQNTNNAFGNQNQLGGSSFGSKPVGSGSLFGQSNNTLGNTTNNRNGLFGQMNSSNQGSSNSGLFGQNSMNSSTQGVFGQNNNQMQINGNNNNSLFGKANTFSNSASGGLFGQNNQQQGSGLFGQNSQTSGSSGLFGQNNQKQPNTFTQSNTGIGLFGQNNNQQQQSTGLFGAKPAGTTGSLFGGNSSTQPNSLFGTTNVPTSNTQSQQGNSLFGATKLTNMPFGGNPTANQSGSGNSLFGTKPASTTGSLFGNNTASTTVPSTNGLFGNNANNSTSTTNTGLFGAKPDSQSKPALGGGLFGNSNSNSSTIGQNKPVFGGTTQNTGLFGATGTNSSAVGSTGKLFGQNNNTLNVGTQNVPPVNNTTQNALLGTTAVPSLQQAPVTN
notes: Nup100 of budding yeast, GLFG-type FG-repeat region, residues 1-610; source: E. coli BL21(DE3), purified (GSH beads, eluted with glutathione, dialysed); not shown: GST, N-terminal, kept
B2: importin β from S. cerevisiae (ScKap95) (natural protein)
chain: MSTAEFAQLLENSILSPDQNIRLTSETQLKKLSNDNFLQFAGLSSQVLIDENTKLEGRILAALTLKNELVSKDSVKTQQFAQRWITQVSPEAKNQIKTNALTALVSIEPRIANAAAQLIAAIADIELPHGAWPELMKIMVDNTGAEQPENVKRASLLALGYMCESADPQSQALVSSSNNILIAIVQGAQSTETSKAVRLAALNALADSLIFIKNNMEREGERNYLMQVVCEATQAEDIEVQAAAFGCLCKIMSLYYTFMKPYMEQALYALTIATMKSPNDKVASMTVEFWSTICEEEIDIAYELAQFPQSPLQSYNFALSSIKDVVPNLLNLLTRQNEDPEDDDWNVSMSAGACLQLFAQNCGNHILEPVLEFVEQNITADNWRNREAAVMAFGSIMDGPDKVQRTYYVHQALPSILNLMNDQSLQVKETTAWCIGRIADSVAESIDPQQHLPGVVQACLIGLQDHPKVATNCSWTIINLVEQLAEATPSPIYNFYPALVDGLIGAANRIDNEFNARASAFSALTTMVEYATDTVAETSASISTFVMDKLGQTMSVDENQLTLEDAQSLQELQSNILTVLAAVIRKSPSSVEPVADMLMGLFFRLLEKKDSAFIEDDVFYAISALAASLGKGFEKYLETFSPYLLKALNQVDSPVSITAVGFIADISNSLEEDFRRYSDAMMNVLAQMISNPNARRELKPAVLSVFGDIASNIGADFIPYLNDIMALCVAAQNTKPENGTLEALDYQIKVLEAVLDAYVGIVAGLHDKPEALFPYVGTIFQFIAQVAEDPQLYSEDATSRAAVGLIGDIAAMFPDGSIKQFYGQDWVIDYIKRTRSGQLFSQATKDTARWAREQQKRQLSL
notes: Kap95 (importin β) of S. cerevisiae, PCR-amplified ORF

Experiments:
[1] = biological target: B2; experiment: pull-down; GST-FG fusions pre-bound to GSH beads; soluble protein (100-500 pmol) pre-mixed with 200 μg bacterial extract proteins in 0.5 ml pulldown buffer (10 mM HEPES pH 7.5, 160 mM KOAc, 1 mM MgOAc2, 1 mM DTT, 0.01% Triton X-100); 20 min, room temperature; eluted with 1 M NaCl, then SDS-sample buffer; SDS-PAGE, SYPRO Ruby; settings: both partners purified
[2] = biological target: ZZ-HsRanQ69L (human, UniProt P62826 1-216, Q69L); experiment: SEC; 2 μM of each protein, 20 min on ice, Superdex 200 10/300 in Ran binding buffer (10 mM HEPES pH 7.4, 150 mM NaCl, 2 mM MgOAc2, 1 mM DTT); fractions by SDS-PAGE (SYPRO Ruby) and Western blot against the ZZ-tag; settings: both partners purified

Binder | binding result [1] | binding result [2]
B1 | binds | 
B2 |  | binds
